Test results taken from US20170129959A1.
One block for each binder: values may come before it.

How the values were obtained:
[1] = biological target: Recombinant hCD127 (Sino Biologicals, reference 10975-H08H) (human) (UniProt P16871); assay: ELISA, recombinant hCD127 coated on plastic at 1 µg/ml, antibody titrated; printed as ED 50
[2] = biological target: Recombinant hCD127 (Sino Biologicals, reference 10975-H08H) (human) (UniProt P16871); assay: ELISA on immobilised recombinant hCD127
[3] = biological target: Recombinant CD127 Fc Chimera (10975-H03H, Sino Biological) (human) (UniProt P16871); assay: SPR (Biacore 3000), CD127Fc immobilised on CM5 chip, antibody injected, Bivalent analyte model
Chain of Recombinant CD127 Fc Chimera (10975-H03H, Sino Biological) (human) (P16871 21-239 I66T/V138I limits assumed): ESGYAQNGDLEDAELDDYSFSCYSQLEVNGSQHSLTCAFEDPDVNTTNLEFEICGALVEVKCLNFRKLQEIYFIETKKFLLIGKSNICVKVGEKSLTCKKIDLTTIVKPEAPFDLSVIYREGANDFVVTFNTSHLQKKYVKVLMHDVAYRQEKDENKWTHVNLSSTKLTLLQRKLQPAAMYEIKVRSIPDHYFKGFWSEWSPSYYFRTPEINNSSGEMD

[4] = biological target: Human CD127 (IL-7 receptor alpha chain) expressed on cells (human) (UniProt P16871); assay: cell-based or functional assay
Chain of Human CD127 (IL-7 receptor alpha chain) expressed on cells (human) (P16871 21-459 I66T/V138I): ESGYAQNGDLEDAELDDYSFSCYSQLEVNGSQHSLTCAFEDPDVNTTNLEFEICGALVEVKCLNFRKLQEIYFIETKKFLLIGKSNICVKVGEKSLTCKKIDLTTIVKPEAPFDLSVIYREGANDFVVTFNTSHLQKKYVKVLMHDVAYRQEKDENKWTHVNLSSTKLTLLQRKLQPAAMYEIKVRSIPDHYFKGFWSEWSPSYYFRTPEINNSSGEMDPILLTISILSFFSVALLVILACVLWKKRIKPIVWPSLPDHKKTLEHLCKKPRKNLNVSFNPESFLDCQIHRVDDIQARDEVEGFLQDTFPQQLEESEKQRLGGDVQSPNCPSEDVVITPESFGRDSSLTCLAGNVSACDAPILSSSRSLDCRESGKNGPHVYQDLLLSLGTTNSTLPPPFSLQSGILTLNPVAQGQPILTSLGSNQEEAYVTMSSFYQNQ

Chain of Recombinant hCD127 (Sino Biologicals, reference 10975-H08H) (human) (P16871 21-239 I66T/V138I limits assumed): as the sequence (P16871 21-239 I66T/V138I limits assumed) above

EC50 [1]: 0.123 µg/mL | EC50 (read off the curve) [2]: 0.1 µg/mL | Ka [3]: 2.19e+09 M⁻¹ | Kd [3]: 0.456 nM | koff [3]: 0.000121 s⁻¹ | kon [3]: 266000 M⁻¹ s⁻¹
B1: MD707-1 (rat anti-human CD127 antibody, previous generation) (antibody, from another filing, V domains shown)
VH: AVHLVESGGGLVQPKESLKISCAASGFTFSNAAMFWVRQAPGKGLEWVARIRTKANNYATYYADSVKGRFTISRDDSKSMVYLQMDNVKTDDTAMYYCIVVVLTTTRDYFDYWGQGVMVTVSS
VL: DIVLTQAPLSVSVTPGESASISCRSSQSLLTVKGITSLYWFLQKPGKSPQLLMYRMSNLASGVPDRFRGSGSETDFTLKISKVETEDVGVYYCAQFLEYPHTFGAGTKLELKR

inhibition of IL-7 induced pSTAT5+ T lymphocytes (% inhibition at 1000 ng/mL) [4]: 50
B2: MD707-13 (anti-human CD127 antibody, WO2013/056984) (antibody, from another filing, V domains shown)
VH: QLKESGPGLVQPSQTLSLTCTVSGLSLPNNNIAWIRQSPGKGLEWMGVIWSNGDTDYNSAIRSRLSISRDSSKSQVFLRMNSLQSEDTAMYFCAREGMTTLDYWGQGVVVTVSS
VL: EIVLTQSPTTMAASPGEKVTITCRASSSVSYMHWFQQKSGSSPKPWIYDSSDLASGVPDRFSGSGSGTSYSLTISSMEAEDAATYYCLQRSSYPRTFGGGTKLELKR
